Source: the Human Domainome abundance scans (Beltran et al. 2025)
± gives the uncertainty stated by the source.

B1: CD2-associated protein, residues 1 to 59; numbered along this chain, Q9Y5K6 (parent)
chain: MVDYIVEYDYDAVHDDELTIRVGEIIRNVKKLQEEGWLEGELNGRRGMFPDNFVKEIKR

Variants of: B1
Assay: abundance fitness (aPCA) (normalised: wild type 0, dead -1); higher = more abundant; growth selection in yeast, the domain comes from the species named
Conditions: Homo sapiens

Abundance fitness, by site and new letter:
R46: I -0.243 ± 0.37; S -0.402 ± 0.13; L -0.245 ± 0.12; F -0.346 ± 0.2; W -0.434 ± 0.16; E -0.445 ± 0.26; K -0.181 ± 0.17; T -0.082 ± 0.13; Q -0.301 ± 0.21; C -0.363 ± 0.2; M -0.066 ± 0.2
F49: I -0.195 ± 0.15; A -0.539 ± 0.26; K -0.826 ± 0.43; L -0.251 ± 0.09
E24: W -0.764 ± 0.18; V -0.94 ± 0.24
N28: S -0.176 ± 0.076; G -0.025 ± 0.083; L -0.734 ± 0.11; H -0.206 ± 0.14; C -0.215 ± 0.13; E -0.185 ± 0.095; P -0.909 ± 0.23; F -0.516 ± 0.12; K -0.262 ± 0.093; T -0.615 ± 0.14; W -0.892 ± 0.28; V -0.927 ± 0.14; Q -0.15 ± 0.12; A -0.387 ± 0.093; D 0.04 ± 0.091
L38: S 0.003 ± 0.074; Y -0.27 ± 0.086; E -0.867 ± 0.42; R -0.563 ± 0.13; T -0.548 ± 0.13; K -0.264 ± 0.23; H -0.662 ± 0.17; M 0.049 ± 0.19; F -0.105 ± 0.091; C -0.193 ± 0.11; G -0.996 ± 0.28; D -0.721 ± 0.38; P -1.07 ± 0.33; V -0.525 ± 0.12; N -0.558 ± 0.16; A -0.25 ± 0.1; I -0.433 ± 0.11
E39: A -0.146 ± 0.12; Q -0.248 ± 0.2; M -0.256 ± 0.13; R -0.486 ± 0.093; V -0.201 ± 0.11; L -0.427 ± 0.1; K -0.302 ± 0.32; S -0.057 ± 0.087; T -0.26 ± 0.1; D -0.541 ± 0.16; F -0.432 ± 0.19; H -0.202 ± 0.14; Y -0.164 ± 0.15; I -0.142 ± 0.17; N -0.446 ± 0.21; C 0 ± 0.21
E35: D -0.032 ± 0.084; V -0.049 ± 0.066; H -0.068 ± 0.14; P 0.051 ± 0.099; I -0.062 ± 0.095; T -0.177 ± 0.067; Q -0.07 ± 0.092; R -0.016 ± 0.062; L -0.205 ± 0.062; C -0.156 ± 0.093; F -0.158 ± 0.15; N 0.054 ± 0.11; S -0.082 ± 0.068; Y -0.215 ± 0.15; M -0.189 ± 0.11; W -0.399 ± 0.11; G -0.071 ± 0.061; K 0.027 ± 0.11; A -0.067 ± 0.058
I25: C -0.392 ± 0.23; G -0.718 ± 0.17; Q -0.338 ± 0.13; R -0.079 ± 0.071; Y -0.294 ± 0.18; T -0.064 ± 0.12; A -0.667 ± 0.22; K -0.043 ± 0.2; W -0.519 ± 0.12; S -0.541 ± 0.14; M -0.28 ± 0.15; P -0.845 ± 0.25; H -0.146 ± 0.26; V -0.088 ± 0.13; E -0.516 ± 0.47
I26: C -0.517 ± 0.13; V -0.177 ± 0.13; W -0.743 ± 0.23; N -0.988 ± 0.33; G -0.926 ± 0.26; A -0.636 ± 0.32; R -0.894 ± 0.17; S -0.79 ± 0.29; L -0.107 ± 0.085
Q33: H -0.119 ± 0.091; G 0.015 ± 0.13; F -0.182 ± 0.06; V -0.317 ± 0.078; W -0.474 ± 0.28; M -0.238 ± 0.23; R -0.084 ± 0.083; I -0.36 ± 0.089; L -0.351 ± 0.068; S 0.03 ± 0.069; T 0.006 ± 0.083; E -0.014 ± 0.18; K -0.07 ± 0.12; C -0.192 ± 0.099; N 0.102 ± 0.073; Y -0.242 ± 0.081; A -0.071 ± 0.089; D 0.065 ± 0.073
V29: C -0.167 ± 0.46; A -0.069 ± 0.1; K -0.999 ± 0.28; S -0.448 ± 0.2; L -0.62 ± 0.22; R -1.04 ± 0.31; E -0.251 ± 0.24; M -0.883 ± 0.43; D -0.866 ± 0.35; G -0.261 ± 0.11; I -0.441 ± 0.23; T -0.378 ± 0.2
R45: G -0.7 ± 0.31; F -0.248 ± 0.19; V -0.275 ± 0.13; Q -0.009 ± 0.13; L -0.224 ± 0.11; C 0.033 ± 0.26; N -0.16 ± 0.14; K -0.075 ± 0.23; S -0.07 ± 0.079; A -0.27 ± 0.14; I -0.191 ± 0.12; Y -0.359 ± 0.24; H 0.232 ± 0.2; M -0.274 ± 0.14
R27: E -0.081 ± 0.2; M -0.133 ± 0.18; G -0.148 ± 0.092; T -0.013 ± 0.079; L -0.208 ± 0.086; Q -0.147 ± 0.18; V -0.096 ± 0.076; H 0.059 ± 0.069; D -0.838 ± 0.18; I -0.155 ± 0.066; Y -0.291 ± 0.075; K -0.283 ± 0.35; A -0.228 ± 0.079; S -0.064 ± 0.057; N -0.173 ± 0.075; C -0.038 ± 0.065; F -0.195 ± 0.057
E34: W -0.057 ± 0.098; R 0.018 ± 0.077; Q -0.241 ± 0.36; H 0.173 ± 0.18; N 0.009 ± 0.16; C 0.094 ± 0.21; V -0.006 ± 0.091; K 0.075 ± 0.15; T -0.028 ± 0.14; M 0.05 ± 0.099; D -0.148 ± 0.15; L 0.004 ± 0.072; Y -0.089 ± 0.3; G -0.034 ± 0.072; P -0.152 ± 0.19; A -0.048 ± 0.13; I 0.074 ± 0.24
M48: P -0.524 ± 0.22; V -0.053 ± 0.069; C -0.012 ± 0.18; R 0.071 ± 0.062; K 0.093 ± 0.097; I 0.115 ± 0.17; D -0.573 ± 0.23; Q -0.015 ± 0.082; H -0.257 ± 0.11; N 0.047 ± 0.17; S 0.048 ± 0.083; A 0.045 ± 0.086; T 0.035 ± 0.094; G -0.33 ± 0.11; W -0.126 ± 0.11; F -0.175 ± 0.13; Y -0.063 ± 0.16; L -0.065 ± 0.079
E41: Q -0.352 ± 0.18; M -0.312 ± 0.2; A -0.388 ± 0.33; N -0.361 ± 0.49; V -0.535 ± 0.22; D -0.349 ± 0.27; S -0.013 ± 0.11; W -0.31 ± 0.14; R -0.306 ± 0.09; Y -0.532 ± 0.28; I -0.191 ± 0.25
K30: A -0.181 ± 0.13; E 0.007 ± 0.18; C -0.148 ± 0.12; I -0.274 ± 0.12; S -0.135 ± 0.095; T -0.07 ± 0.11; H 0.111 ± 0.19; F -0.158 ± 0.14; D -0.22 ± 0.18; V -0.166 ± 0.13; L -0.191 ± 0.09; R -0.071 ± 0.068; N -0.113 ± 0.16; G -0.127 ± 0.1; Q -0.31 ± 0.19; M 0.018 ± 0.11; W -0.192 ± 0.091
L42: F -0.212 ± 0.12; M -0.678 ± 0.21; V -0.146 ± 0.14; S -0.267 ± 0.1; I 0.043 ± 0.22; W -0.399 ± 0.16; T -0.515 ± 0.18; C -0.012 ± 0.13; H -0.297 ± 0.15; Q -0.328 ± 0.19; A -0.327 ± 0.15; Y -0.839 ± 0.43
G40: S -0.463 ± 0.12; D -0.825 ± 0.36; V -0.904 ± 0.43; E -0.926 ± 0.41; M -0.661 ± 0.31; L -0.945 ± 0.24; K -0.541 ± 0.18; R -0.858 ± 0.23; A -0.999 ± 0.4
W37: R -0.298 ± 0.14; L -0.273 ± 0.075; T -0.359 ± 0.14; Q -0.32 ± 0.12; S -0.277 ± 0.12; V -0.253 ± 0.093; I -0.451 ± 0.18; G -0.779 ± 0.25; K -0.469 ± 0.35; M -0.219 ± 0.15; Y -0.02 ± 0.28
G36: Y -0.614 ± 0.15; L -0.978 ± 0.18; E -0.659 ± 0.38; D -0.551 ± 0.1; C -0.403 ± 0.11; V -0.745 ± 0.13; T -0.618 ± 0.13; I -0.632 ± 0.13; R -0.195 ± 0.1; Q -0.467 ± 0.3; S -0.352 ± 0.08; H -0.231 ± 0.1; N -0.174 ± 0.12; F -0.622 ± 0.15; M -0.433 ± 0.16; P -0.143 ± 0.17
K31: C 0.109 ± 0.34; L -0.214 ± 0.09; T 0.03 ± 0.12; Q -0.07 ± 0.1; G -0.096 ± 0.083; I 0.191 ± 0.19; Y -0.159 ± 0.44; S -0.13 ± 0.099; H 0.036 ± 0.17; W -0.328 ± 0.12; F -0.728 ± 0.33; A 0.053 ± 0.11; E -0.061 ± 0.11; P 0.089 ± 0.12; R -0.069 ± 0.092; V -0.092 ± 0.093; N -0.311 ± 0.5
L32: D -0.223 ± 0.14; T -0.302 ± 0.21; F 0.016 ± 0.19; I -0.238 ± 0.15; Y -0.206 ± 0.18; S -0.011 ± 0.078; A 0.118 ± 0.092; K 0.01 ± 0.15; E -0.088 ± 0.27; V 0.074 ± 0.24; G -0.013 ± 0.079; M -0.159 ± 0.24; H -0.001 ± 0.12; P -0.152 ± 0.13; N -0.078 ± 0.16; C 0.003 ± 0.11
G44: V -0.843 ± 0.31; H -0.549 ± 0.3; S -0.592 ± 0.22; R -0.133 ± 0.32; L -0.547 ± 0.36
N43: R -0.082 ± 0.089; F -0.409 ± 0.15; Q -0.287 ± 0.12; V -0.694 ± 0.18; W -0.562 ± 0.26; T -0.62 ± 0.12; Y -0.072 ± 0.11; H 0.145 ± 0.15; C -0.383 ± 0.11; P -0.653 ± 0.2; E -0.192 ± 0.45; L -0.323 ± 0.06; K -0.149 ± 0.12; S -0.221 ± 0.051; M -0.395 ± 0.15; G -0.057 ± 0.15
